From publication PMC10991452, “Bioeconomic production of high-quality chitobiose from chitin food wastes using an in-house chitinase from Vibrio campbellii” (Bioresources and Bioprocessing, 2022)

Substrate: CC(=O)N[C@H]1[C@H](Oc2ccc([N+](=O)[O-])cc2)O[C@H](CO)[C@@H](O[C@@H]2O[C@H](CO)[C@@H](O)[C@H](O)[C@H]2NC(C)=O)[C@@H]1O
Assay: purified protein
Type: biochemical, Vibrio harveyi
Settings: 0.1 M sodium acetate pH 5.5, 30 °C, 10 min, 0-500 µM substrate

B1: VhChiA (Vibrio harveyi) (protein)
chain: APTAPSIDMYGSNNLQFSKIELAMETTSGYNDMVKYHELAKIKVKFNQWSGTSGDTYNVYFDGVKVATGAITGSQTTASFEYGQGGLYQMEIEACDATGCSKSAPVEITIADTDGSHLKPLTMNVDPNNKSYNTDPSIVMGTYFVEWGIYGRDYTVDNMPVDNLTHILYGFIPICGPNESVKSVGGNSFNALQTACRGVNDYEVVIHDPWAAYQKSFPQAGHEYSTPIKGNYAMLMALKQRNPDLKIIPSIGGWTLSDPFYDFVDKKNRDTFVASVKKFLKTWKFYDGVDIDWEFPGGGGAAADKGDPVNDGPAYIALMRELRVMLDELEAETGRTYELTSAIGVGYDKIEDVDYADAVQYMDYIFAMTYDFYGGWNNVPGHQTALYCGSFMRPGQCDGGGVDENGEPYKGPAYTADNGIQLLLAQGVPANKLVLGTAMYGRGWEGVTPDTLTDPNDPMTGTATGKLKGSTAQGVWEDGVIDYKGIKSFMLGANNTGINGFEYGYDAQAEAPWVWNRSTGELITFDDHRSVLAKGNYAKSLGLAGLFSWEIDADNGDILNAMHEGMAGGVVTPPNR
Km: 216 µM
